Measurements: patent US7915393B2 (Corixa Corporation, priority 2001, dated 2011)

Test system: WT1-specific CTL targets (DC transduced with WT1 or pulsed with WT1 peptides)
Test: CTL by chromium release after WT1 DNA or adenovirus/alphavirus immunization
Assay type: in vivo, C57/BI6 mice; HLA-A2/Kb transgenic mice
Settings: C57/BI6 mice, 3 x 100 μg, 25:1 E:T ratio
Description: Mice were sacrificed 2-3 weeks after the final immunization and CTL were evaluated by standard Chromium release assay.
Mice were sacrificed 2-3 weeks after the final immunization and CTL were evaluated by standard Chromium release assay. […] Thus, this immunization strategy also effectively elicits WT1-specific CTL in vivo.

B1: WT1 DNA: naked DNA encoding the splice variant of WT1, SEQ ID NO:381 (nucleic acid)
DNA: ATGGGCTCCGACGTTCGTGACCTGAACGCACTGCTGCCGGCAGTTCCGTCCCTGGGTGGTGGTGGTGGTTGCGCACTGCCGGTTAGCGGTGCAGCACAGTGGGCTCCGGTTCTGGACTTCGCACCGCCGGGTGCATCCGCATACGGTTCCCTGGGTGGTCCGGCACCGCCGCCGGCACCGCCGCCGCCGCCGCCGCCGCCGCCGCACTCCTTCATCAAACAGGAACCGAGCTGGGGTGGTGCAGAACCGCACGAAGAACAGTGCCTGAGCGCATTCACCGTTCACTTCTCCGGCCAGTTCACTGGCACAGCCGGAGCCTGTCGCTACGGGCCCTTCGGTCCTCCTCCGCCCAGCCAGGCGTCATCCGGCCAGGCCAGGATGTTTCCTAACGCGCCCTACCTGCCCAGCTGCCTCGAGAGCCAGCCCGCTATTCGCAATCAGGGTTACAGCACGGTCACCTTCGACGGGACGCCCAGCTACGGTCACACGCCCTCGCACCATGCGGCGCAGTTCCCCAACCACTCATTCAAGCATGAGGATCCCATGGGCCAGCAGGGCTCGCTGGGTGAGCAGCAGTACTCGGTGCCGCCCCCGGTCTATGGCTGCCACACCCCCACCGACAGCTGCACCGGCAGCCAGGCTTTGCTGCTGAGGACGCCCTACAGCAGTGACAATTTATACCAAATGACATCCCAGCTTGAATGCATGACCTGGAATCAGATGAACTTAGGAGCCACCTTAAAGGGCCACAGCACAGGGTACGAGAGCGATAACCACACAACGCCCATCCTCTGCGGAGCCCAATACAGAATACACACGCACGGTGTCTTCAGAGGCATTCAGGATGTGCGACGTGTGCCTGGAGTAGCCCCGACTCTTGTACGGTCGGCATCTGAGACCAGTGAGAAACGCCCCTTCATGTGTGCTTACCCAGGCTGCAATAAGAGATATTTTAAGCTGTCCCACTTACAGATGCACAGCAGGAAGCACACTGGTGAGAAACCATACCAGTGTGACTTCAAGGACTGTGAACGAAGGTTTTTTCGTTCAGACCAGCTCAAAAGACACCAAAGGAGACATACAGGTGTGAAACCATTCCAGTGTAAAACTTGTCAGCGAAAGTTCTCCCGGTCCGACCACCTGAAGACCCACACCAGGACTCATACAGGTGAAAAGCCCTTCAGCTGTCGGTGGCCAAGTTGTCAGAAAAAGTTTGCCCGGTCAGATGAATTAGTCCGCCATCACAACATGCATCAGAGAAACATGACCAAACTCCAGCTGGCGCTTTGAG
lysis (WT1-specific cytotoxic T cell response): 40%
